8 substances from patent US6960559 can be followed below.

For series [1], the system named is T1, cbz-FAF[125I]Y-NH2.
T1 sequence: FAFY

Series [2] has as its target rat CNS myelin (spinal cord myelin membrane fraction). As to the kind of experiment: cell-based or functional assay.
For series [3], the target named is 250 kD CNS myelin associated inhibitory protein from rat CNS myelin (rat). As to the kind of experiment: solid phase radioimmunoassay on liposomes with gel-extracted protein, 125I goat anti-mouse, background subtracted.
In series [4] the target is 35 kD CNS myelin associated inhibitory protein from rat CNS myelin (rat). The description is as above.
For series [5], the target named is rat CNS myelin, trypsin-treated. The experiment in a line: solid phase radioimmunoassay, antigen-coated wells, hybridoma supernatant, 125I goat anti-mouse, background subtracted.
For series [6], the target named is rat CNS myelin (spinal cord myelin membrane fraction). The description is as above.
The target of series [7] is rat PNS myelin (sciatic nerve myelin membrane fraction). Described as above.
Series [8] deals with CNS myelin protein liposomes (total rat CNS myelin protein reconstituted in lipid vesicles). As to the kind of experiment: cell-based or functional assay.
Series [9] has as its target 250 kD CNS myelin associated inhibitory protein from rat CNS myelin (rat). As to the kind of experiment: cell-based or functional assay.
Series [10] concerns the target 35 kD CNS myelin associated inhibitory protein from rat CNS myelin (rat). The experiment in a line: cell-based or functional assay.

Chain of tissue-type plasminogen activator (tPA) (P00750 36-562): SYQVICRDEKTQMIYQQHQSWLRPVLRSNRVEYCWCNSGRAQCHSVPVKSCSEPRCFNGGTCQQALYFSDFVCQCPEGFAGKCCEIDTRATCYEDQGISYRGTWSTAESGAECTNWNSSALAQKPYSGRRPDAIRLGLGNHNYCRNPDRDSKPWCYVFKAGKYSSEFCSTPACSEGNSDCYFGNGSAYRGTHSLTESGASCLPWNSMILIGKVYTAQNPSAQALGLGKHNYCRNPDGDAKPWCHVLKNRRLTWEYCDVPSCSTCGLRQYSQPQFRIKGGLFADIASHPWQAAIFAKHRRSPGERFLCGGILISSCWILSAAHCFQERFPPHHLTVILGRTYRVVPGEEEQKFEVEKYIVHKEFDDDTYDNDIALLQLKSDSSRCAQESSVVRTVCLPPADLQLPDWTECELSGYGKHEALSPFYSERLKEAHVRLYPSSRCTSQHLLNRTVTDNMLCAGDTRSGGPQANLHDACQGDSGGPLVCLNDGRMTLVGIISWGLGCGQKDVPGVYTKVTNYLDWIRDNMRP

In series [1], cathepsin D registered an Amount necessary to degrade 50% of substrate in 30 min [µg], pH 4.0 of 0.005 µg and an Amount necessary to degrade 50% of substrate in 30 min [µg], pH 7.4 greater than 100 µg.

Turning to tissue-type plasminogen activator (tPA), the Amount necessary to degrade 50% of substrate in 30 min in series [1] was greater than 100 µg.

For the substance trypsin, the Amount necessary to degrade 50% of substrate in 30 min in series [1] was found to be 0.3 µg.

Turning to “C6 plasma membrane associated metalloendoprotease (rat C6 glioblastoma cells) (enzyme)”, in series [2], the 3H-Thymidine Incorporation (%) of 3T3 cells on CNS myelin preincubated with C6 PM (untreated CNS myelin: 30) came out at 83% and the 3T3 Cell Spreading (%) on CNS myelin preincubated with C6 PM (untreated CNS myelin: 15) worked out at 52%.

The substance collagenase showed an Amount necessary to degrade 50% of substrate in 30 min in series [1] of 3 µg.

In [1], urokinase (uPA) returned an Amount necessary to degrade 50% of substrate in 30 min greater than 100 µg.

For “C6 plasma membrane associated metalloendoprotease (rat C6 glioblastoma cells)”, in series [1], the Amount necessary to degrade 50% of substrate in 30 min [µg], total C6 PM protein stood at 1.5 µg and the “cbz-FAF[125I]Y-NH2 degradation by the plasma membrane fraction (5 µg)” value worked out at 2.7 nmol/min.

With monoclonal antibody IN-1, in series [3], the Amount of Antibody Bound (cpm of 125I-Labeled Goat Anti-Mouse) worked out at 250 cpm. In series [4], this substance yielded an Amount of Antibody Bound (cpm of 125I-Labeled Goat Anti-Mouse) of 350 cpm. The Amount of Antibody Bound (cpm of 125I-Labeled Goat Anti-Mouse) in series [5] came out at 25 cpm. The same substance came in with an Amount of Antibody Bound (cpm of 125I-Labeled Goat Anti-Mouse) in series [6] of 550 cpm. Further, in series [7], the Amount of Antibody Bound (cpm of 125I-Labeled Goat Anti-Mouse) was 80 cpm. In [2], this substance had a 3T3 Spreading (µm^2) on liposomes of IN-1-immunoprecipitated myelin protein, Protocol 1 of 218 µm^2 and a 3T3 Spreading (µm^2) on liposomes of IN-1-immunoprecipitated myelin protein, Protocol 2 of 215 µm^2. Besides, in series [8], the 3T3 spreading value on CNS lipos. preadsorbed with IN-1 (no antibody: 1.11) worked out at 2030 µm^2; the % inhibition of 3T3 spreading on CNS lipos. preadsorbed with IN-1 (no antibody: 45) came out at 10%; the % inhibition of C6 spreading on CNS lipos. preadsorbed with IN-1, 0.3 mM 1,10-phenanthroline (no antibody: 46) is 11%; the C6 spreading value on CNS lipos. preadsorbed with IN-1, 0.3 mM 1,10-phenanthroline (no antibody: 1.35) is 2250 µm^2. This substance had a 3T3 Spreading (µm^2) on 250 kD liposomes made from IN-1-precipitated protein, Protocol 2 in [9] of 245 µm^2. This substance registered a 3T3 Spreading (µm^2) on 35 kD liposomes made from IN-1-precipitated protein, Protocol 2 in [10] of 270 µm^2.
